In the DeepSol protein solubility set:

Test: soluble on expression in E. coli; label from the status in PepcDB or PDB records

Sequence | soluble on expression in E. coli
GSGYVFGGFIRADIKKWYIQPNIYYMYNSSSIDVNQTSTDVKSKSVNGDVLLGYRFFKFTDLTYLRLFAGPGYSNINTLKYDSCTSDYSTDNILLNAGVGLDFWKLTFDLKYQRGLTDIDKSSNTMHTSLFMLTAGFKIL | not soluble
TMIAIKPTKLKDFSSLMQLDVQEEQIGFAKPFEQAYQKRNKSEVFFTIYSDYLTVGYLIIDKGFAQHAPFAMRHELGLNYLMIDRRFQRQGIGAEALKKLFVYAYTIDPESTSLCVTVPNSHQGALDFFLACGFTNTEKAIYGEQEKEWLMRHPL | not soluble
MAKNDFKFISYKDKVKKELDATAERGMTKVLMIIKAAAKSGAPVETGQLRDRIDYQLKAVGGKVVGIVGSPEQYAIYVEFGTGEFAENGSGRKGGWFFEGPDGEWHFTRGQKPQKFLRNAFRQNKEKVIEILGKEYGATFKGG | not soluble
MLFTEMEIEIPKAVFEELQLYIEYLQEKTGKTIDPMAAIGNILQTYFENNGLWGVSEEDFKEKAKIAVKKLLTKKAKKDKPLLTKKVEKLLTQAVEIEQVPAKTAGQIAYQAKALVQVTFPHRDPKTPYYRCDSGKYSLIITADPDHGIPYGTYPRLITCWLVTEIVRTNSRRIVLGKCFSDFLRSIGVGLDSRTRKQVEQQIKRLFSADIKLKYNSKESWQFQRCNVATKAAMWWDTKNPDQFTLDESFVVVGEDFYAMALNAPFPIDLRALAALKQSPMALDIYMWLTLRMCHLAAPYPLSWPQLKSQFGPETSDLDNFRTKFKDALKKVRVVYPHAKLSVNAKELTLFPSPTHVQKAVKRVAALEHHHHHH | soluble
MKGSRIELGDVTPHNIKQLKRLNQVIFPVSYNDKFYKDVLEVGELAKLAYFNDIAVGAVCCRVDHSQNQKRLYIMTLGCLAPYRRLGIGTKMLNHVLNICEKDGTFDNIYLHVQISNESAIDFYRKFGFEIIETKKNYYKRIEPADAHVLQKNLKVPSGQNADVQKTDN | soluble
MQKDALNNVRITDEQVLMTPEQLKAAFPLSLAQEAQIAQSRGIISDIIAGRDPRLLVVCGPCSIHDPETALEYARRFKALAAEVSDSLYLVMRVYFEKPRTTVGWKGLINDPHMDGSFDVEAGLKIARQLLVELVNMGLPLATEALDPNSPQYLGDLFSWSAIGARTTESQTHREMASGLSMPVGFKNGTDGSLATAINAMRAAAQPHRFVGINQAGQVALLQTQGNPHGHVILRGGKAPNYSPADVAQCEKEMEQAGLRPSLMVDCSHGNSNKDYRRQPAVAESVVAQIKDGNRSIIGLMIESNIHEGNQSSEQPRSEMKYGVSVTDACISWEMTDALLREIHKDLSGQLAVRVA | not soluble
MAHHHHHHMNKNFAQILEDFISDGSRKHRGHGDDGANEENVPHFINQDGSNLFNDDIGKKFEKKNFFKYTEYSLSSLYMSDNQIPLEEDPKFETFINVITKASDVNNEYKWVDDYFKFEVKEEMNILTPRSQDRDFLFRKYLQPNQLKNICLLRKYEQAAISKTPEKNKVDAKIVSEYIVHDSYRQIMKALNFKWSHRIFTKARIFHSKYGNSDHIVILVMRHYKDENFLHPLFHDRALVQIKSYLNDNKHADMTQKNLLNYTEVFKPYVSLRKVDSNFVEQIKDRYYGAF | soluble
SAGSVADSDAVVKLDDGHLNNSLSSPVQADVYFPRLIVPFCGHIKGGMRPGKKVLVMGIVDLNPESFAISLTCGDSEDPPADVAIELKAVFTDRQLLRNSCISGERGEEQSAIPYFPFIPDQPFRVEILCEHPRFRVFVDGHQLFDFYHRIQTLSAIDTIKINGDLQITKLG | soluble
SMKINFLRNKHKIHVQGTDLPDPIATFQQLDQEYKINSRLLQNILDAGFQMPTPIQMQAIPVMLHGRELLASAPTGSGKTLAFSIPILMQLKQPANKGFRALIISPTRELASQIHRELIKISEGTGFRIHMIHKAAVAAKKFGPKSSKKFDILVTTPNRLIYLLKQDPPGIDLASVEWLVVDESDKLFEDGKTGFRDQLASIFLACTSHKVRRAMFSATFAYDVEQWCKLNLDNVISVSIGARNS | soluble
MYPKQFLKFGETSLFQETVLRCLEVSDISEVFVVTNEAQKFFVIGQIKEAGYSIPPENILIEPEGKNTLPAIFFGMKEIEKKFGDSIVGVFSSDHVLDRAAMATISSAENLASDYLVTFGVVPTFPHTGYGYIKASEACSPGYRVSEFREKPDFETAKKYIEEGCLWNSGMFLFETRLFFEEARKHAPSVYGCFEKEGDINQIYECVDNISIDYGIMEKSDKVAVVRLDHKWSDLGNFAAIYDELEKDSVGNVIHDCDPMLLNSDGNLVYSRCGKIVSLIDVKDMVVVDTSDALLICPKSSSQKVKEIVSELKGRKDERAFIGQTVYRPWGSYTLLDASPGHKIKNITVLSDHKLSLQLHYHRSEHWVVVKGMACVEVDGKQFFLGPGESTFIRAGQKHRLSNPGKLPLEIIEVQLGELVDEEDIVRFDDVYGRRLEHHHHHH | soluble
MSLNTLNQDIAFKIFTMFYKVCYGKKKHTYTSFFEKFQICTYNDILLLCDEVAKLFKMENSLENVTLPCKVFGDVHGNLFDLLDFFNLYNWPMHNNKVFLGNLINRGNYSLEVICLLFSLKILFPKHIYLLRGNHEDRLFNYIYGFYKDIEIKMKTNMEYMGIINYQEQVISAHSYELFNRINDVFEFFPLCVLLDKNILCIHGGIGDSVMTISDYQHIRKPILIPQNVDRYSNNKSEHVKKIIIDTLWSDPINYNDELDLQLLKNSSTYDIIPSRRGNITFKFGKHRLNDFLKNNQLKLIIRGHECVQEGYKYSYKRKLLTLFSAKNYCNKYNNNASNAFIVRKNKNIIIFNQILKYQHNCEGHHHHHH | not soluble
MKIALINENSQASKNHIIYDSLKEATDKKGYQLFNYGMRGEEGESQLTYVQNGLMAAILLNTKAVDFVVTGCGTGVGAMLALNSFPGVVCGLAVDPTDAYLYSQINGGNALSIPYAKGFGWGAELTLKLMFERLFAEEMGGGYPRERVIPEQRNARILNEVKQITHNDLMTILKIIDQDFLKDTISGKYFQEYFFENCQDDEVAAYLKEVLAK | soluble
MFPVVDDVKAKELGLEVVYNLELPLRPERQIYRNLEDLLPKDVVEKVGRLDIVGDIAIISIPDELMPRKGVIVEAIRKLYPKIKVIARRGFHTGVYRVRRLEVIWGENRLQTIHKENGVLLKIDLSKVFFNPRMKGERYRLAQLIKDGERILIPFAGVLPYALVIARFRKVDIVAVELNDEAVKLAQENVLLNKDKLKGKISIIHGDVFDVLPKLPSFDRVISPTPKGVDALALTLSKAKRFLHYYDFIHEDKLGEFKEKIIKECQKQGKECKVKVRKVADYKPHVYKVCADIEIK | soluble
MTKPFAPASARNRDPILSVLQRYFADRQHVLEIGAGTGQHAVHFAAAMPWLRWQASDHPDHLPGMRQWLDEAALPNTPPPVALQAVLTPAPGLAPAPPLPPVQAGTPAGYDAIYSANTLHIMGWPQVQALFAGLPAVMAPQAVLVIYGPFNRDGEFTSDSNRDFDAMLRARDAASGIRDAAEVDALAAQVGLQLVDDVDMPANNRCRVWQRALEHHHHHH | soluble
MSLGQKGHKDSLYPCGGTPESSLHEALDQCMTALDLFLTNQFSEALSYLKPRTKESMYHSLTYATILEMQAMMTFDPQDILLAGNMMKEAQMLCQRHRRKSSVTDSFSSLVNRPTLGQFTEEEIHAEVCYAECLLQRAALTFLQDENMVSFIKGGIKVRNSYQTYKELDSLVQSEGHHHHHH | not soluble
SSSSDESEVKEAPKEEAKADKPKVSAPAQRGSDFANIGPMYPLDPFTLNLLSDSGSRYVKCTIELEQNSELLKPELDKKVPVIRDIIIRTLTAKTFEEVSTQKGKERLKDELVGKINEILTDGFIKNVYFTDFVVS | not soluble
SLRIEHFETISCDAGWRNYYFLKVVTSDGIVGWSEYDESFGPPGLTAVIEQLGARLVGKSVYDHEEAYGRLAASLRPAPYGLSAEAIGAIENALLDAKAKSLGLPVYQLLGGKHRGSIPIYWSHCATWRISHPNLYPPAIVDLDGVKKAGEDARKSGISALKTNLFINENGKPRQWMAGFGSPYAPSLNVDKALLRNLRAHLEALRDGAGPDVDILVDLNFNARTEGYLSLINAIKDFDLFWVELDIYNPDAMAYIRQRSHAPIAACETLFGIRQFLPYFQAQSMDVAIVDAVWNGVWQAMKIASVADAFDVNIAPHNFYSHLSTMMNVHFAAAVPNLRVMEVDVDRLAWDDQLFTRTPEIVNGAIQVPDAPGWGCDPIEEALRAHPPQVRRSHLGL | soluble
MNEIHQPLARRVWRSNVDEEMARMAECLKRFPLIAFDTEYPGIIFRTYFDSSSDECYRAMKGNVENTKLIQCGFTLFNAKGEIGGVWEINFSNFGDPSDTRNELSIEFLRRHGLDLQKIRDEGVDMFGYGFFPKLMTVFRSQKHVEFVTFQGAYDFAYFLSILNHGKLPETHGEFATEVVKVFGQVYDTKVMAGFCEGLGEHLGLSKLAQLLQITRVGRAHHAGSDSLMTALVFIKLKHVYEDSRFARGLIYGIGKSNLVAAPAPAPVPEPTLPLMCQQNVASYPVFHNGYVQNYEQPQLVSYDPSGAPWAFCNATGTYVQLTHLPASTFAYPSQTPSATVDYLGPVPNYYNNNACYVVE | soluble
MGSDKIHHHHHHMTSPVENVKKKPRPLALSPSRAGDYQQCPLLYRFRAIDRLPEPKTVAQVKGTLVHAVLEYMHKLPREEREYPAMVKQLKPTWAQMCEEDAELKELVPEDELYDFLVDSRTLLRGYFEMENPQGFDATECEMYVDTVLPNGVPVRGFIDRVDTAPTGQVRVIDYKTGKKPKPQWSQQAQFQMLFYALVYWRMFNEIPAQLRLMYLKVNDSMFLNPSREQLEFFERDLGDLWAKIEMDGKAGHFRTKTSKLCGWCPHQSLCPEYGGVPPEYPGWPGSTAD | not soluble
MVFGFLKGVRRRPPLNRACPPIPESKSNESIMSHASRISEHQKAAAAAAATSETTTGDLVIENRNVVDVLHRLDANSNIALPPSSNIRKSKEKKAKMSSTPRSPLMSMANSVKSKLTKITHLGRSSNESSGSSSNIKTSQSFSGIRQPKQIPKRIDQNANRVIKSSSMEVPSTSKVCIPQDPTPLIDDKIEEISEAGLISKSEMAPPKPKEHVCVKLEEDVLVVTKEFDERYPGQKRSASPDVPMVEESQTMSEVDQLPSEQVAETFSEDNVNELDNNANQKTPGPVRRIIQETTTTTITTTTFDSPIPIIEKMEVERPEEAEDVIVIEAPEPVQPPIPSPKKERFTSPERYILLVKTPEALRKHRTLTIGEKDPTEVDTEEKIQYTRLETVKFKEVKEKVKYEEPVPKEKFILTMKTPEAIRRHHTFTIRDKSPEEMNKITKITKSQSDVHVSKRAAKKLVKQASEPERRDLFEEKEDVVPEPKFVIVMKTPECLRRHHTFTIGDRPKSPDYPYIEEGEITEPIATIGPPADRRKKEEAKERKKREWEEYETPPKEKFILTTTTPLAIRKYQTFVVEPKDEKTALPQSASADAVMLAKKGKVQRKNVTSSIQQLSLDEPITSPSRKPVSPEPRHLFVMGGRRSTTPQEDRKVPEPPRNLKLDTDRSQSDHAELLEERKSTMSGDLTSPEEEIPMDTNLTPTTEEVMEAVIVSRRIEGLMTSPIEEEPEGLTSSIRDLSIRSLAKETERPAPVFTPPSPPKENPFHVMTVPKSTLTSSSESAMPMTSSSSSIRAKPNQLPIKKTIQVVDPMHIVELKPEHKSKKEALAAKSLRNAGKMLTPSFLRKEKKGPKKSLYAKTTSSGRQHISEKKEK | not soluble
GSSKSWANHENKTVNKITVVGGGELGIACTLAISAKGIADRLVLLDLSEGTKGATMDLEIFNLPNVEISKDLSASAHSKVVIFTVNSLGSSQSYLDVVQSNVDMFRALVPALGHYSQHSVLLVASQPVEIMTYVTWKLSTFPANRVIGIGCNLDSQRLQYIITNVLKAQTSGKEVWVIGEQGEDKVLTWSGQEEVVSHTSQVQLSNRAMELLRVKGQRSWSVGLSVADMVDSIVNNKKKVHSVSALAKGYYDINSEVFLSLPCILGTNGVSEVIKTTLKEDTVTEKLQSSASSIHSLQQQLKL | soluble
